Data reported in patent publication US20240158769A1 (RHEINISCH WESTF LISCHE TECHNISCHE HOCHSCHULE RWTH AACHEN, published 2024).

Target: the molecule itself
Test: size exclusion chromatography against protein standards (peaks at 80 kDa and 50 kDa; data not shown)

B1: Phytase chimera PTRec 77 (enzyme)
chain: SDTAPAGFQLERVVILSRHGVRAPTKMTQTMRDVTPHQWPEWPVKLGYITPRGEHLISLMGGFYRERFQQQGLLPKDNCPTPDAVYVWADVDQRTRLTGQAFLDGIAPGCGLKVHYQADLEKVDPLFHPVEAGVCQLDSTQTHRAIEAQLGAPLSELSQRYAKPFAQMSEILNFTASPYCKSLQQQGKSCDFATFAANEVKVNQQGTKVSLSGPLALSSTLGEVFLLQEAQGMPQVAWGRITGEKEWRDLLSLHNAQFDLLQRTPYLAKHNGTPLLQTIAHALGSNITSRPLPDISPDNKILFIAGHDTNIANISGMLGMTWTLPGQPDNTPPGGALVFERWVDNAGKPYVSVNMVYQTLAQLHDQAPLTLQHPAGSVRLNIPGCSDQTPDGYCPLSTFSRLVSHSVEPACQLP
modifications: N-linked glycans, heterogeneous (hypermannosylation), from secretion by Pichia pastoris; sites not stated
notes: Recombinant chimera of phytase fragments from Hafnia alvei, Yersinia mollaretii and Citrobacter braakii; It was secreted by P. pastoris and purified; also called DJ 11
binding result: no binding
